B1: Bcl-2-binding component 3 (Mus musculus), Q99ML1 (parent)
chain: MARARQEGSSPEPVEGLARDSPRPFPLGRLMPSAVSCSLCEPGLPAAPAAPALLPAAYLCAPTAPPAVTAALGGPRWPGGHRSRPRGPRPDGPQPSLSPAQQHLESPVPSAPEALAGGPTQAAPGVRVEEEEWAREIGAQLRRMADDLNAQYERRRQEEQHRHRPSPWRVMYNLFMGLLPLPRDPGAPEMEPN
B2: Phorbol-12-myristate-13-acetate-induced protein 1 (Mus musculus), Q9JM54 (parent)
chain: MPGRKARRNAPVNPTRAELPPEFAAQLRKIGDKVYCTWSAPDITVVLAQMPGKSQKSRMRSPSPTRVPADLKDECAQLRRIGDKVNLRQKLLNLISKLFNLVT

Variants of: B1
Details: with mcl1_mouse Mcl1, P97287
mcl1_mouse Mcl1, P97287, sequence (P97287 whole entry): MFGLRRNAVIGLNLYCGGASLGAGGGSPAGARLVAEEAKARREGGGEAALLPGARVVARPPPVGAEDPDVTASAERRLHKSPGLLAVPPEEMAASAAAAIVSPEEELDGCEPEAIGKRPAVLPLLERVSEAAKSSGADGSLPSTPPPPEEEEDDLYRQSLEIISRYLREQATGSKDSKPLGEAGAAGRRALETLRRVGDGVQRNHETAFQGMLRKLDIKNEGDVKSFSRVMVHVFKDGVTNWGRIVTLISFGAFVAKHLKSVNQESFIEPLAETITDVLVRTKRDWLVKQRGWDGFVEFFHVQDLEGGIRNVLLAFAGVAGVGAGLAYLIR

Variant | effect of a mutation on the interaction
M144I | increasing interaction

Variants of: B2
Details: with mcl1_mouse Mcl1, P97287

Variant | effect of a mutation on the interaction
E74F | increasing interaction strength

Reference: IntAct's records for PubMed 18589438
